Measurements published in patent publication US20130224191A1, “NOTUM PROTEIN MODULATORS AND METHODS OF USE” (priority 2010, published 2013).

Columns and labels:
Notum [1] = target: T1, Notum (Homo sapiens, UniProt Q6P988); assay: Bio-layer interferometry on ForteBIO RED; format: binding; settings: 250, 125 and 62.5 nM antigen
T1 sequence (Q6P988 20-496): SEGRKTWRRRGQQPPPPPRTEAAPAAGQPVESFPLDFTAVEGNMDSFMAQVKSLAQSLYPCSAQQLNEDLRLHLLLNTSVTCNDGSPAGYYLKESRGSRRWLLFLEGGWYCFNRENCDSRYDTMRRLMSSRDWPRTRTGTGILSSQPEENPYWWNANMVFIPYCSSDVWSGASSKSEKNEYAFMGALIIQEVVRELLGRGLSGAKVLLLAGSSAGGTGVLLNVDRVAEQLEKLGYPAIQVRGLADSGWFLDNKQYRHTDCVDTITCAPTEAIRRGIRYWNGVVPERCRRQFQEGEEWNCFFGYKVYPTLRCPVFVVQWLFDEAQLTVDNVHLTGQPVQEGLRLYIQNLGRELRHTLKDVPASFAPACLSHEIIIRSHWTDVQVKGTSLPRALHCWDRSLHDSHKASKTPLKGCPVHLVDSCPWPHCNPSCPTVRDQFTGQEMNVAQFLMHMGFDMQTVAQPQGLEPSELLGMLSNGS
Description: (§1) Three methods were used to characterize the affinity of humanized SC2.D2.2 relative to its analogous mAb with the murine variable region. First, binding signal was measured for a fixed amount of antibody probed against serial dilutions of antigen in an ELISA format. […] Second, the affinity of murine SC2.D2.2 was measured by Biacore using surface plasmon resonance (SPR) to provide the results set forth in FIG. 32A. Based on a concentration series of 12.5, 6.25, 3.125, 1.5625, 0.78125 nM and using a 1:1 Langmuir binding model, the Kd of the antibody binding to antigen was estimated to be less than 0.1 nM. Long off-rates for this interaction made accurate determination of affinity through kinetics difficult. The murine antibody was then directly compared to the humanized derivative using bio-layer interferometry analysis on a ForteBIO RED (ForteBIO, Inc.) with a concentration series of 250, 125, and 62.5 nM antigen.

Notum [2] = target: T1, Notum; assay: ELISA, fixed antibody against serial dilutions of antigen; format: binding
Description: as §1

[3] = target: T2, human Notum (recombinant or endogenous; construct not specified at the place of use) (human, UniProt Q6P988 20-496); assay: bio-layer interferometry (ForteBIO RED), fixed antibody, antigen at 250, 125 and 62.5 nM by the text
T2 construct: also called hNotum; human Notum protein
T2 sequence: T1 sequence (Q6P988 20-496)
Description: Three methods were used to characterize the affinity of humanized SC2.D2.2 relative to its analogous mAb with the murine variable region. First, binding signal was measured for a fixed amount of antibody probed against serial dilutions of antigen in an ELISA format. Measured signal levels were substantially similar (data not shown). Second, the affinity of murine SC2.D2.2 was measured by Biacore using surface plasmon resonance (SPR) to provide the results set forth in FIG. 32A. […] Long off-rates for this interaction made accurate determination of affinity through kinetics difficult. The murine antibody was then directly compared to the humanized derivative using bio-layer interferometry analysis on a ForteBIO RED (ForteBIO, Inc.) with a concentration series of 250, 125, and 62.5 nM antigen.

B1: hSC2.D2.2 (antibody, human IgG1, V domains shown)
VH: EVQLVESGGGLVQPGGSLRLSCAASGFTFSSYGMNWVRQAPGKGLEWVSYISSSTVTTYYADSVKGRFTISRDNAKNSLYLQMNSLRDEDTAVYYCSRQNWDGGYFDVWGAGTTVTVSS
VL: DIVMTQSPLSLPVTPGEPASISCRASKSVSSSGYSYMHWYLQKPGQSPQLLIYLASNLESGVPDRFSGSGSGTDFTLKISRVEAEDVGVYYCQHSRALPLTFGAGTKLELKR
notes: Humanized variable regions cloned into vectors with human IgG1 and kappa constant regions; also called humanized SC2.D2.2
With B1 the “affinity, binding curves” value (Notum [1]) was “excellent affinity”, the “binding signal relative to antibody with murine variable region” value (Notum [2]) was “substantially similar” and the binding result [3] was “binds”.
